According to a protein production outcome set (Wang et al. 2014):

Test: label from the status in PepcDB records
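Note: failed if final PepcDB status was selected cloned or expressed and not failed if soluble or beyond.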

Sequence	protein production
VKSIFEIDIEKLADSGVKGIITDLDNTLVGWDVKEPTKGVKSWFAKAKDLGITVTIVSNNNKSRVSSFSSNLGVDYIFKARKPMGKAFKMAIKKMKIQPRETVVVGDQMLTDVFGGNCNGLYTIMVVPVKRTDGLITKFN	not failed
MSDTLRPYKNLFPGIGQRVMIDTSSVVIGDVRLADDVGIWPLVVIRGDVNYVAIGARTNIQDGSVLHVTHKSSSNPHGNPLIIGEDVTVGHKVMLHGCTIGNRVLVGMGSIVLDGAIIEDDVMIGAGSLVPQHKRLESGYLYLGSPVKQIRPLSDAERSGLQYSANNYVKWKDDYLSQDNHIQP	not failed
MDRRVTRRGVLAAAGIALAGCTDNGDDQPVRTPLPDEEREPLSNTWRSLGRDDGNTGAVAGIAGPYIEVAAEWQFDVGGAVIGGPVFDENTLYAGTADGEVYALDTHVGAERWSFSADGPVSTTPVVDDGLVAVGSSDGHIYGIDADDGTELWRFDTAVRVDSSPAIDDRYVYAGSVSNAAYAIDRTNGELHWRFDADGSVLASPAVGDETVYVASTDHNVYAIDPDSGEADWQFTTGGEISVAPTLVGDRLYVGSRDSSVYAIDTGSGEGRWSFGLEAAVASSPAVLGDRLFVGAADHNLYALGIGDDSPEGLWRSPTPGAAVGNPAVTDDHVFFGGRDGAVRALRTDGGDRSWEHDVDGGIQGGPALTDRWLYVGTDAGTVYAFRAG	failed
TAGKKAAMDRLSTQEGIISALAIDQRGALKKMIKALDVEPTDAQIETFKELVSKELTPYASAILLDPEYGLPAAKARDTEAGLLLAYEKTGYDATTPGRLPDLLADWSVLRLKEEGADAIKFLLYYDVDEDPEINHQKHVFIERLGSECAEEDLPFYLELVSYDAQIADATSLEYAKVKPHKVNEMMKEFSKPQYKVDVLKVEVPVNMNFVEGFAPAETAYTKEEAANYFLEQSQATDLPFIFLSAGVSTELFQETLRFAKEAGSTFNGVLCGRATWKNGVKPFVEAGETAACDWLKTEGRENIESLNEVIAATASSWHAKVQVNE	failed
MKRWQMEWLLVSVALVWGANYTIGKYGVAFMSSIQFNSLRFLVASPVLLLITFLMERSLRIERKDWLRLVAVGIVGTTMYQTMFMLSVKYTSATNASLLIAMSPIFTGILAVLHKQERFSMKVQIGSIVAFIGAAFVLLTGHTGGATYEYAWLGNIIGLVAAIAWGWYPILAQPLITKYSAMRVTSWSTLIGIVPLVIYCLFNVNTLTWPVDTPSWGSLAYSIVFATIFGLAMWYVGISQIGSTKVMVYMYLVPLFAVIFAAVIIGEQINMMQLVGGLIIFIGLYVVKKGGMKKPALNLKKVS	failed
IYGYVEKATLIDQNLTLSAKLDTGAKSASLHAVNITEIEKKGIPYLRFTVPTKTGDYSFEGEYVGKVKIKVRSSETNPGLLRTTPIKRPVVLLNIKLGDKVRTIKVNLTNRKRFLYPLLLGRDAIIDFNGAVDPALTFTTKSK	not failed
MTSAREAFDLYRAGRTAEAAALCERLVAAAPSVEAWHLLGVARLELGAAQAALTALDAGLALDPVRPGLLSARTLALTSLHRDDEAVVAARAALAVDPDNPPVFNALAVSLQRLGGFSEALAAIDHAVAAAPREAAYRAHRAALLVLLNRPAEAARDLEAVLEVNPSHPRVAGDLMWARRQTCDWREDAALDMLVKADLKLGRAGVAPFAALALFDLPVLHRRCATLSAPPSVPAPVWPVRRPGERLRVAYLSSDLHEHATARLLAGVLEAHDRSRFEIFAVSYGPETGGAMQERLRAACEHWIEARRLSDAEIALKCRQQGVDIAVDLKGYTQDGRPGILAHRAAPLQVSWLGYPGTLGAHADVVLADAVTLPPGAETNWSEAVVRLPCYQPNDGLTSVIPAPSRADMGLPERVRVFCCFNNPAKITPEVFATWMAILRAAPDSVLWLYAGAPGAADNLRGHARAAGVAPERLVFAEPAPHEAHLARHVLADLVLDTWPYGAHTTASDALRMGVPVLTLPGESFASRVGASLATAIGMTELIATSRADYVAKALAMAADGALKPRVAEAVRRSNLFDPVAFARSLETVYAGLVRR	failed
MRGPAVLLTVALATLLAPGAGAPVQSQGSQNKLLLVSFDGFRWNYDQDVDTPNLDAMARDGVKARYMTPAFVTMTSPCHFTLVTGKYIENHGVVHNMYYNTTSKVKLPYHATLGIQRWWDNGSVPIWITAQRQGLRAGSFFYPGGNVTYQGVAVTRSRKEGIAHNYKNETEWRANIDTVMAWFTEEDLDLVTLYFGEPDSTGHRYGPESPERREMVRQVDRTVGYLRESIARNHLTDRLNLIITSDHGMTTVDKRAGDLVEFHKFPNFTFRDIEFELLDYGPNGMLLPKEGRLEKVYDALKDAHPKLHVYKKEAFPEAFHYANNPRVTPLLMYSDLGYVIHGRINVQFNNGEHGFDNKDMDMKTIFRAVGPSFRAGLEVEPFESVHVYELMCRLLGIVPEANDGHLATLLPMLHTESALPPDGRPTLLPKGRSALPPSSRPLLVMGLLGTVILLSEVA	failed
MDIFLVVLVLLTIIAISNIVNRFIPFIPVPLIQVALGILAASFPQGLHFELNTELFFVLFIAPLLFNDGKRTPRAELWNLRAPILLLALGLVFATVIVGGYTIHWMIPAIPLAAAFGLAAILSPTDVVAVSALSGRVKMPKGILRLLEGEGLMNDASGLVAFKFAIAAAVTGAFSLAQAAVSFVFISLGGLLCGVVISFLIIRFRLFLRRLGMQDVTMHMLIQILTPFVIYLAAEEIGVSGILAVVAGGITHAVEQDRLESTMIKLQIVSSSTWNIILFILNGLVFVILGTQIPDVISVIFNDTAISNMKVIGYILVITFTLMLLRFLWVLFFWNGKWFFNKDQNIYKPGLRSTLLISISGVRGAVTLAGSFSIPYFLEDGTPFPERNLILFLAAGVILCTLVIATVVLPILTEKEEEDEERNKKLLTARRKLIKTALQTIKEDMNETNKTASLAVIAEYNEKMKNLRFQQYTSSNRIKKHERKVRAQGVKAEQEALMKMLERGDIPEETANVLQERFNELEILYANPFKVGLSKTRLKRLMYWIFFGEHKKPEMSILNEAGLIRATRVKTAKAAIEYLEKHKTDEHKEVFLSVITFYKQLIFRLEHSHHELKSSAHFENQKLEVKLKAVQAIRNEIQTLFEEREISRDISHELRQYINDVEAAMLEGGE	failed
MTLPIPSSPPRIKINLPCFQYVGTEMSVDIITSIWFMTLTEFATFMPKRDMCPKPASIPPAAPTVENTVPTTIPQINRRSSITSSSSTTVDNFVIKIYQVYRRMQTLTLEISTTKRSVLNKLKRASLTFQQFKNLLYLCLLEYYKNTKDVKPFLSVSFLEKFVKGKENLPFENEKIKSYREKLKELWEKEIGSDTVKALARQVSKEVKSVLEKWKKGERAFLPRPRKLKKVHKFTVPTNPNMLVDKRKLKRRRENSIVVRLGISFGAVKVKIPQGINIRDVKITWYEDTEVIFRISYEVPKAQKELLKEKWLSIDLGVRNLVSCISNDENLRSFIVDGNPLKSFNQWVNKLSAKLRSEGKERLERKLWRYRKKRIKGFFHQVANLIVRVCLERGIGRVIIPNSLNEEYQKDSEKGARFNQEFRFIPLGELVKMIEYKCELCGIEVVKEDESWTSKVSSVSGNIEVLKEEIPEGEVKKLKFEGRRIKRGLFRDRRLKKVFNADLNGALNLAIKALGKKVREEFLSLRNWLDKLSRPVKVNLFRYPASLPVLWEIAGSKSCSPKGDSEGHFAGSVSDLITFAHF	failed
SPMANSGPLCCTICHERLEDTHFVQCPSVPSHKFCFPCSRESIKAQGATGEVYCPSGEKCPLVGSNVPWAFMQGEIATIL	not failed
MRLNQISKFAIVSVVVLVLALLLGGSAKTNLTVEEVNKALEPFFDSLSYILNYYYEADKLDINKLIDHAIDGLVKGTGDDFSYYQDPETYRENQIEMKGEYGGLGIEVTYDAEHGAIKVVAPMYGTPAWRAGLKAGDLIITIDGTPVSKMTYMEAVNNLRGEPGTSVTIEVLRDGEKLTFTIVREKIEIKMVLYSFIETEKGSIGYVRITRFGEKADSDMKNALDKIFEKGVKGLIIDVRDNPGGYLDVALKIVSMFVDKGVILKVRNGFGEEDVYESYGNSYPNVPIVLLVNEGSASASEILTGALKDLGIATVVGRKTFGKGSVQTGFPLSNGGVLFLTTAHYLTPSGKDIHKIGIEPDVLVEESVEEELHAETREQIEVDPEKDPFVKKGLEVLLEKIK	failed
MISLPYLQRFALSGQVALVTGSARGLGLRIAQALAGSGAHVLLNGRDAHAVEAAVSDLRQQGLRASALPFDVSDEQATEQAFARIDAEHGRLDILVNNVGARNRKPLAETSPAEIRAMMDTNLVAGILLARLAAQRMVRQRYGRLIAITSVAGELARANDAVYPAAKQGLTGMMRALAVEFGRHGITSNAIAPGAFATETNAAMANDPQAGAAMAARNPTGRWGDPEEIAGAAVFLASPAASYVNGHVLVVDGGLSVQF	failed
MFAIRRRCRPRPGQFQHGWSGLPTHTVPQAGSIAPIGRVRPSSVGNVRPTPECNVLPSFGRSSTNPSFPMEPIEDLDVLAEDEVRQREADGEVDEDLDRVKHGYDATAGDKQVYIETYGCQMNVNDSGIVASVLEESGYGLTRDQAAADVVLLNTCAIRENAERKIRARLSMLRSEKEKRDGELMLGVLGCMAERLREKLLEQEDLVDVVVGPDAYRDLPQLLYEADATGQAAVNVELSKQETYEDIQPVRYDSNGVSAYVSIMRGCDNMCTFCVVPFTRGREESRPVTTILSEVARLAEEGYKEVTLLGQNVNSYHYTDADGTSVSFAELVDRVSRVSPEMRVRYSTSHPKDCTDDLLKVHRDRPNVCNYIHLPVQHGNTEVLDRMRRTYTREEYLALTERAKELCPGVSLSTDLIAGFCGETEAQHEDTLSLMEEVRYDHAYMFKYSERPQTYAARKYEDDVPEDTKQRRLEEIIELQNQHAKESNEAEVGRVHTVLVEGPSKKSDAQFFGRTDTNKGVVFDREDYEKGDYVRVRIEDCTSSTLLGTAIEKTTLEAAARTDSITTSPAVA	failed
MEHSGTSEVTGADTAGPDPQLAVTMGFTGFGKKARTFDLEAMFEQTRRTAVERSRKTLEAREKEEEMNREKELRKQIEDMEPAPSSSSAARERSQSSCRDTSSSDSESDDSSDSSDDELIGPPLPPKMVGESVTTVDEGTLGPLPPPLCEEGEDDDDDELDDEGEEDNPVQRIPDSHEITLRHGTKTVSALGLDPSGARLVTGGYDYDVKFWDFAGMDASFKAFRSLQPCECHQIKSLQYSNTGDMILVVSGSSQAKVIDRDGFEVMECIKGDQYIVDMANTKGHTAMLHTGSWHPKIKGEFMTCSNDATVRLWEVENPKKQKSVFKPRTMQGKKVIPTTCTYSRDGNLVAAACQNGSIQIWDRNLTVHPKFHYKQAHDPGTDTSCVAFSYDGNVLASRGGDDTLKLWDVRQFNKPLFSASDLPTLFPMTDCCFSPDDKLIVTGTSVQRGCGSGKLVFLERRTFQRVYEIHITDASVVRCLWHPKLNQIMVGTGNGLAKVYYDPNKSQRGAKLCVVKTQRKAKQAETLTQDYIITPHALPMFREPRQRSTRKQLEKDRLDPLKSHKPEPPVAGPGRGGRVGTHGGTLSSYIVKNIALDKTDDSNPREAILRHAKAAEDNPYWVSPAYSKTQPKTMFAQVESDDEESKNEPEWKKRKI	failed
MAPLLMILAAQLLIASGNLLVKLLETNTPVFQLVLYRQLFATLLVLPFVWHLQGNLKLSPFYKVHLSRALLIGLGNAIFMLAVLHLPLATVTAVIYSSPLILLLLSAFFLNERIGYRRSVAGLIGFTGILLISQPTEVNLYIGLAFFGAMISAINSLILKAYSTHEHPFSTLFWSNAFAMVFLIPATWYEGANFSLPVAQVGLTLGVFYVGMTYLIIHAYRRADASQMAPVEYTGLIFAALLGWWFLDETLSVVVCIGIGLVIFSSLLPSYGELKAKWKSRRR	failed
